Data reported in patent US6984657B1, “Indole derivatives as MCP-1 receptor antagonists” (AstraZeneca AB, priority 2000, dated 2006).

Columns and labels:
MCP-1 receptor B (CCR2B) = molecular target: T1, MCP-1 receptor B (CCR2B) (Homo sapiens, UniProt P41597); assay: hMCP-1 receptor binding assay (125I-MCP-1, CHO-CCR2B cell membranes); settings: CHO-CCR2B membrane fragments
T1 construct: expressed in transfected cells; host or cells: CHO-K1 clone 7 (CHO-CCR2B), membrane fragments
T1 sequence (P41597 1-360 isoform P41597-2): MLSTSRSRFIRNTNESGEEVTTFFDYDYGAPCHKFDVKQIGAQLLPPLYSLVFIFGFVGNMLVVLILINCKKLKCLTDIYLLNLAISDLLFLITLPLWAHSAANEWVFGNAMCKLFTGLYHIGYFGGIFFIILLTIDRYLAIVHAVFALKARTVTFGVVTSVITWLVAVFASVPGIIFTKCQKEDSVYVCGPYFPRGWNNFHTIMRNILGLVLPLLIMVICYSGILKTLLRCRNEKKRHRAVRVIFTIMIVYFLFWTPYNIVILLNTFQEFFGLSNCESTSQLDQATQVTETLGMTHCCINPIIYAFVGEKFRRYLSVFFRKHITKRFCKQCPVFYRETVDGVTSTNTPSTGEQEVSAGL
Excerpt: The MCP-1 receptor B (CCR2B) cDNA was cloned by PCR from THP-1 cell RNA using suitable oligonucleotide primers based on the published MCP-1 receptor sequences (Charo et al., 1994, Proc. Natl. Acad. Sci. USA, 91, 2752). The resulting PCR products were cloned into vector PCR-II™ (In Vitrogen, San Diego, Calif.). Error free CCR2B cDNA was subcloned as a Hind III-Not I fragment into the eukaryotic expression vector pCNA3 (In Vitrogen) to generate pCDNA3/CC-CKR2A and pCDNA3/CCR2B respectively.
Linearised pCDNA3/CCR2B DNA was transfected into CHO-K1 cells by calcium phosphate precipitation (Wigler et al., 1979, Cell, 16, 777). Transfected cells were selected by the addition of Geneticin Sulphate (G418, Gibco BRL) at 1 mg/ml, 24 hours after the cells had been transfected. Preparation of RNA and Northern blotting were carried out as described previously (Needham et al., 1995, Prot. Express. Purific., 6, 134). CHO-K1 clone 7 (CHO-CCR2B) was identified as the highest MCP-1 receptor B expresser.
CHO-CCR2B cells were grown in DMEM supplemented with 10% foetal calf serum, 2 mM glutamine, 1× Non-Essential Amino Acids, 1× Hypoxanthine and Thymidine Supplement and Penicillin-Streptomycin (at 50 μg streptomycin/ml, Gibco BRL). Membrane fragments were prepared using cell lysis/differential centrifugation methods as described previously (Siciliano et al., 1990, J. Biol. Chem, 265, 19658). […]

THP-1 cells [1] = assay: hMCP-1 mediated chemotaxis of THP-1 cells; type: cell-based, human; settings: 2 h at 37° C.
Experimental: In vitro chemotaxis assays were performed using the human monocytic cell line THP-1. Cell migration through polycarbonate membranes was measured by enumerating those passing through either directly by Coulter counting or indirectly by use of a colourimetric viability assay measuring the cleavage of a tetrazolium salt by the mitochondrial respiratory chain (Scudiero D. A. et al. 1988, Cancer Res., 48, 4827-4833). […]
In an alternative form of the above assay, fluorescently tagged cells can be used in order to assist in end point detection. […] At the end of the incubation, cells are washed off the upper face of the filter with phosphate buffered saline, the filter removed from the plate and the number of cells attracted to either the underside of the filter or the lower well estimated by reading fluorescence at 485 nm excitation, 538 nm emission wavelengths (fmax, Molecular Devices). The data was input into a spreadsheet, corrected for any random migration in the absence of chemoattractant and the average fluorescence values, standard error of the mean, percentage inhibition and IC50 of compounds under test and significance tests can be calculated. […]

THP-1 cells [2] = assay: MCP-1 mediated calcium flux in THP-1 cells; type: cell-based, human; settings: stimulation of THP-1 cells with hMCP-1, FURA-2, approximate; read-out: EC50 of the rise in [Ca2+]i
Experimental: The human monocytic cell line THP-1 was grown in a synthetic cell structure medium RPMI 1640 supplemented with 10% foetal calf serum, 6 mM glutamine and Penicillin-Streptomycin (at 50 μg streptomycin/ml, Gibco BRL). THP-1 cells were washed in HBSS (lacking Ca^2+ and Mg^2+)+1 mg/ml BSA and resuspended in the same buffer at a density of 3×10^6 cells/ml. The cells were then loaded with […] FURA-2/AM for 30 min at 37° C., washed twice in HBSS, and resuspended at 1×10^6 cells/ml. THP-1 cell suspension (0.9 ml) was added to a 5 ml disposable cuvette containing a magnetic stirrer bar and 2.1 ml of prewarmed (37° C.) HBSS containing 1 mg/ml BSA, 1 mM MgCl2 and 2 mM CaCl2. The cuvette was placed in a fluorescence spectrophotometer (Perkin Elmer, Norwalk, Conn.) and preincubated for 4 min at 37° C. with stirring. Fluorescence was recorded over 70 sec and cells were stimulated by addition of hMCP-1 to the cuvette after 10 sec. [Ca^2+]i was measured by excitation at 340 nm and 380 nm alternatively and subsequent measurement of the intensity of the fluorescence emission at 510 nm. […] Rmax is the maximal fluorescence ratio determined after addition of […] Ionomycin, Rmin is the minimal ratio determined by the subsequent addition of a Ca^2+ free solution containing 5 mM EGTA, and Sf2/Sb2 is the ratio of fluorescence value at 380 nm excitation determined at Rmin and Rmax, respectively. […]

IC50 (MCP-1 receptor B (CCR2B); cold competition of unlabeled MCP-1 with 100 pM 125I-labeled MCP-1): 0.11 nM
Kd (MCP-1 receptor B (CCR2B); equilibrium binding, room temperature): 0.12 nM
EC50 (THP-1 cells [2]): ~2 nM
Substance: MCP-1: Human Monocyte Chemoattractant Protein-1, a C—C chemokine; ligand of the CCR2 receptor
concentration of maximal cell migration (biphasic response) (THP-1 cells [1]): 0.5-1.0 nm
